Results as given in patent US20240336672A1.
Numbering of substitutions follows the chain as printed.

B1: Cv2.1353 (recombinant human IgG1) (antibody)
heavy: EVQLVESGGGLVQPGGSLRLSCAASGVTVSSNYMNWVRQAPGKGLEWVSVIYSGGSTFYADSVKGRFIISRDNSKNTLYLQMNSLKTEDTAVYYCARDLGPMGFDIWGQGTMVTVSSASTKGPSVFPLAPSSKSTSGGTAALGCLVKDYFPEPVTVSWNSGALTSGVHTFPAVLQSSGLYSLSSVVTVPSSSLGTQTYICNVNHKPSNTKVDKKVEPKSCDKTHTCPPCPAPELLGGPSVFLFPPKPKDTLMISRTPEVTCVVVDVSHEDPEVKFNWYVDGVEVHNAKTKPREEQYNSTYRVVSVLTVLHQDWLNGKEYKCKVSNKALPAPIEKTISKAKQPREPQVYTLPPSRDELTKNQVSLTCLVKGFYPSDIAVEWESNGQPENNYKTTPPVLDSDGSFFLYSKLTVDKSRWQQGNVFSCSVMHEALHNHYTQKSLSLSPGK
light: DIQMTQSPSFLSASVGDRVTITCRASQGISSYLAWYQQKPGKAPKLLIYAASTLQSGVPSRFSGSGSGTEFTLTISSLQPEDFATYYCQQLNSDPPVTFGPGTKVDIKRTVAAPSVFIFPPSDEQLKSGTASVVCLLNNFYPREAKVQWKVDNALQSGNSQESVTEQDSKDSTYSLSSTLTLSKADYEKHKVYACEVTHQGLSSPVTKSFNRGEC
B2: COV2-2130 (antibody, V domains shown)
VH: EVQLVESGGGLVKPGGSLRLSCAASGFTFRDVWMSWVRQAPGKGLEWVGRIKSKIDGGTTDYAAPVKGRFTISRDDSKNTLYLQMNSLKTEDTAVYYCTTAGSYYYDTVGPGLPEGKFDYWGQGTLVTVSS
VL: not shown
B3: Cilgavimab (antibody, V domains shown)
VH: B2 VH
VL: not shown
B4: Cv2.3194 (recombinant human IgG1) (antibody)
heavy: EVQLVESGGGLIQPGGSLRLSCAASGITVTSNYMSWVRQAPGKGLEWVSVIYPGGSTFYADSVKGRFTISRDNSKNTLYLQMNSLRAEDTAVYYCARDLVVYGMDVWGQGTTVTVSSASTKGPSVFPLAPSSKSTSGGTAALGCLVKDYFPEPVTVSWNSGALTSGVHTFPAVLQSSGLYSLSSVVTVPSSSLGTQTYICNVNHKPSNTKVDKKVEPKSCDKTHTCPPCPAPELLGGPSVFLFPPKPKDTLMISRTPEVTCVVVDVSHEDPEVKFNWYVDGVEVHNAKTKPREEQYNSTYRVVSVLTVLHQDWLNGKEYKCKVSNKALPAPIEKTISKAKQPREPQVYTLPPSRDELTKNQVSLTCLVKGFYPSDIAVEWESNGQPENNYKTTPPVLDSDGSFFLYSKLTVDKSRWQQGNVFSCSVMHEALHNHYTQKSLSLSPGK
light: EIVLTQSPGTLSLSPGERATLSCRASQSVSSSYLAWYQQKPGQAPRLLIYGASSRATGIPGRFSGSGSGTDFTLTISRLEPEDFAIYYCQQGVTFGGGTKVEIKRTVAAPSVFIFPPSDEQLKSGTASVVCLLNNFYPREAKVQWKVDNALQSGNSQESVTEQDSKDSTYSLSSTLTLSKADYEKHKVYACEVTHQGLSSPVTKSFNRGEC
B5: Cv2.5213 (recombinant human IgG1) (antibody)
heavy: B4 heavy with I27F, T30S, V50L, P53S, F58Y, V100N, V101Y, T111A
light: not shown
B6: Cv2.3235 (recombinant human IgG1) (antibody)
heavy: B4 heavy with I27F, T30S, S31R, P53S, L99G, V100D, V101Y
light: DIQMTQSPSFLSASVGDRVTITCRASQGISSFLAWYQQKPGKAPKLLIYGASTLQSGVTSRFSGSGSGTEFTLTISSLQPEDFATYYCQRLDSYPPITFGQGTRLEIKRTVAAPSVFIFPPSDEQLKSGTASVVCLLNNFYPREAKVQWKVDNALQSGNSQESVTEQDSKDSTYSLSSTLTLSKADYEKHKVYACEVTHQGLSSPVTKSFNRGEC
B7: ADG-2 (antibody, V domains shown)
VH: EVQLVESGGGLVKPGGSLRLSCAASGFTFSSYYMNWVRQAPGKGLEWVSSISEDGYSTYYPDSLKGRFTISRDSAKNSLYLQMNSLRADDTAVYYCARDFSGHTAWAGTGFEYWGQGTLVTVSS
VL: QSVLTQPPSVSGAPGQRITISCTGSSSNIGAGYDVHWYQQLPGTAPKLLIYGSSSRNSGVPDRFSGSKSGTSASLAITGLQAEDEADYYCQSYDSSLSVLYTFGTGTKVTVL

Key:
Details in all cases: remark: other sources report otherwise
[1] = molecular target: T1, SARS-CoV-2 kappa variant B.1.617.1/3 RBD domain (SARS-CoV-2); assay: ELISA; set-up: unit not given beside the values
[2] = molecular target: T2, SARS-CoV-2 delta variant B.1.617.2/3 RBD domain (SARS-CoV-2); assay: ELISA; set-up: unit not given beside the values
[3] = molecular target: SARS-CoV-2 delta plus variant RBD (SARS-CoV-2); assay: ELISA; set-up: unit not given beside the values
[4] = molecular target: T3, SARS-CoV-2 omicron variant B.1.1.529 RBD domain (SARS-CoV-2); assay: ELISA; set-up: unit not given beside the values
[5] = molecular target: T4, SARS-CoV-2 omicron variant B.1.1.529 Spike ectodomain (tri-S, HexaPro) (SARS-CoV-2), P0DTC2; assay: ELISA; set-up: unit not given beside the values
[6] = molecular target: T4, SARS-CoV-2 omicron variant B.1.1.529 …; assay: tri-S/ACE2 blocking ELISA [B]
[7] = molecular target: T1, SARS-CoV-2 kappa variant B.1.617.1/3 …; assay: RBD-ACE2 competition ELISA; set-up: unit not given beside the values
[8] = molecular target: T2, SARS-CoV-2 delta variant B.1.617.2/3 …; assay: RBD-ACE2 competition ELISA; set-up: unit not given beside the values
[9] = molecular target: SARS-CoV-2 delta plus variant RBD (SARS-CoV-2); assay: RBD-ACE2 competition ELISA; set-up: unit not given beside the values
[10] = molecular target: T2, SARS-CoV-2 delta variant B.1.617.2/3 …; assay: RBD/ACE2 blocking ELISA
[11] = molecular target: SARS-CoV-2 delta plus variant RBD (SARS-CoV-2); assay: RBD/ACE2 blocking ELISA
[12] = molecular target: T1, SARS-CoV-2 kappa variant B.1.617.1/3 …; assay: ELISA; set-up: unit not given beside the values; remark: listed apart in the source
[13] = molecular target: T2, SARS-CoV-2 delta variant B.1.617.2/3 …; assay: ELISA; set-up: unit not given beside the values; remark: listed apart in the source
[14] = molecular target: SARS-CoV-2 delta plus variant RBD (SARS-CoV-2); assay: ELISA; set-up: unit not given beside the values; remark: listed apart in the source
[15] = molecular target: T1, SARS-CoV-2 kappa variant B.1.617.1/3 …; assay: ELISA
[16] = molecular target: SARS-CoV-2 delta plus variant RBD (SARS-CoV-2); assay: ELISA
[17] = molecular target: T3, SARS-CoV-2 omicron variant B.1.1.529 …; assay: ELISA; unit from paragraph 452, none printed in the heatmap
[18] = molecular target: T1, SARS-CoV-2 kappa variant B.1.617.1/3 …; assay: RBD/ACE2 blocking ELISA
[19] = molecular target: T1, SARS-CoV-2 kappa variant B.1.617.1/3 …; assay: competition ELISA, biotinylated RBD to immobilized ACE2 ectodomain
[20] = molecular target: T2, SARS-CoV-2 delta variant B.1.617.2/3 …; assay: as above
[21] = molecular target: T3, SARS-CoV-2 omicron variant B.1.1.529 …; assay: as above
[22] = molecular target: SARS-CoV-2 Omicron subvariant BA.2 RBD (SARS-CoV-2); assay: as above
[23] = molecular target: SARS-CoV-2 delta plus variant RBD (SARS-CoV-2); assay: as above
[24] = molecular target: T4, SARS-CoV-2 omicron variant B.1.1.529 …; assay: competition ELISA, biotinylated tri-S to immobilized ACE2 ectodomain
[25] = molecular target: T2, SARS-CoV-2 delta variant B.1.617.2/3 …; assay: ELISA
[26] = molecular target: T2, SARS-CoV-2 delta variant B.1.617.2/3 …; assay: RBD-ACE2 competition ELISA [letter not given]

Binder	AUC (RBD bind.) [1]	AUC (RBD bind.) [2]	AUC (RBD bind.) [3]	AUC [4]	AUC [5]	AUC of blocking [6]	AUC (RBD block.) [7]	AUC (RBD block.) [8]	AUC (RBD block.) [9]	% binding inhibition [10]	% binding inhibition [11]	AUC [12]	AUC [13]	AUC [14]	also measured
B1	13	13	13	3	7	4	112	97	142						
B2										77%	88%	4	3	3	
B3															OD405nm [15]: 3.7; OD405nm [16]: 3.5; EC50 [17]: 0.027 µg/mL
B4	13	13	13	10	12	76	128	102	141	94%	94%	4	3	3	% binding inhibition [18]: 92%; IC50 [19]: 0.469 µg/mL; IC90 [19]: 1.1 µg/mL; IC50 [20]: 0.827 µg/mL; IC90 [20]: 1.31 µg/mL; IC50 [21]: 6.53 µg/mL; IC90 [21]: 37.6 µg/mL; IC50 [22]: 2.71 µg/mL; IC90 [22]: 29.1 µg/mL; IC50 [23]: 0.28 µg/mL; IC90 [23]: 0.967 µg/mL; IC50 [24]: 0.876 µg/mL; IC90 [24]: 1.2 µg/mL; OD405nm [15]: 3.6; OD405nm [25]: 3.4; OD405nm [16]: 3.5
B5	13	13	12	1	2	10	150	91	33						IC50 (read off the curve) [26]: 1 µg/mL
B6	12	13	6	1	1	0	111	71	9						EC50 (read off the curve) [16]: 0.3 µg/mL
B7										96%	80%	4	3	3	% binding inhibition [18]: 95%
